The series can be described thus: yeast display, Sf9 membrane polyspecificity reagent, FACS + sequencing; frameworks hold sequencing errors. Summed up: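 After 36–48 hours of galactose induction, yeast (Saccharomyces cerevisiae BJ5465) displaying a synthetic nanobody library were stained at 4 °C for 1 hour with 10% biotinylated, detergent-solubilized Sf9 membrane reagent. Streptavidin microbeads enriched the stained cells before FACS sorting into low and high (top ~1%) gates on anti-HA and streptavidin fluorescence. Each clone's polyreactivity label reflects its gate of origin.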
As to “HVQLVESGGGLFQAGGSLRLICAASGSTFGFYAMGWYRQAPGKERELVAAISRRTGSTYYADSVKGRFTISRDNAKNTVYLQMNSLKPEDTAVYYCNTDQSQKTVGYDYWGQGTQVTVSS”, the “polyreactivity (PSR sort gate)” value was “high polyreactivity”.
Regarding “HVQLVESGGGLVQAGASLRLSCAASGRTFGRYAMGWSRQAPGKERELVAAIRSGGSTYYADSVKGRFTISRDNAKNTVYLQMNSLNPEDPAVYYCAADIARHLTGFAYDRLDYCGQGTQVTVSS”, the “polyreactivity (PSR sort gate)” value is listed as “low polyreactivity”.
As for “HVQLVESGGGLVQAGGSLRLICAASGGTFAGYSMGWYRQAPGKDRELVAAITYRSSTTYYADSVKGRFTISRDNAKNTVYLQMNSLKPEDTAVYYCAARTRGTGRNLDYWGQGTQVNVSS”, the entry is “high polyreactivity”; as for “HVQLVESGGGLVQAGGSLRLRCAASGFTIRSYVMGWYRQAPGKERELVAAIRRSGGSTYYADSVKGRFTISRDNAKNTVYLQMNSLKPEDTAVYYCNTVSGYGQPRGDYWGQGTQVTVSS”, “high polyreactivity”; as for “HVQLVESGGGLVQAGGSLRLSCAASGFTFPANAMGWYRQAPGKERELVAAISSSGGTYYADSVMGRFTISRDNAKNTVYLQMTSLKQEDTAVYYCAAYRFKYYYWGQGTQVSVSS”, “high polyreactivity”.
Consider “HVQLVESGGGLVQAGGSLRLSCAASGGIFVYYAMGWYRQAPGKVRELVAAISRSAASTYYADSVKGRFTISRDNAKNTVYLQMNSLKPEDTADYYCAAGQLTDKGGGDSWGQGTQVTVSS”, for which the “polyreactivity (PSR sort gate)” value is given as “low polyreactivity”.
Under “HVQLVESGGGLVQAGGSLRLSCAASGIIFQRNAMGWYRQAPGKERELVAPISYSDGSTYYADSVKGRFTISRDNAKNTVYLQMNSLKPEDTAVYYCAARRFGRLALYFRFDYWGQGTQVTVSS” stands “low polyreactivity”; under “HVQLVESGGGLVQAGGSLRLSCAASGITFYDNVMGWYRQAAGKERELVAAITDSGGSTYYADSVKGRFTISRDNEKNTDYLQMNSLNPEDTAVYYCNAEVNAHWWWYIEDYWGQGTQVTVSS”, “low polyreactivity”.
Under “HVQLVESGGGLVQAGGSLRLSCAASGPTFVTNAKGWYRQAPGKERELVAAISRSGGHTYYADSVKGRFTISRDIAKNTVYLQMNSLKPEDTAVYYCAKNRGPRTLYDYWGQGTQVTVSS” stands “high polyreactivity”.
As for “HVQLVESGGGLVQAGGSLRLSCAASGRIFASYPMGWYRPAPGNERELVAAISLSGGSTYYADSVKGRFTISRDNAKNTVYLQMNSLKPEDTAVYYCAAKNYRRYRDYYWGQGTQVTVSS”, the entry is “high polyreactivity”.
As for “HVQLVESGGGLVQAGGSLRLSCAASGRIFRYAMAWYRQAPGNETELVAAISSSGGGTYYADSVKGRFTISRDNAKNTVNLQMNSLKREDTAVYYCIAEYGWRFDYWGQGTQVTVSS”, the “polyreactivity (PSR sort gate)” value is listed as “high polyreactivity”.
With “HVQLVESGGGLVQAGGSLRLSCAASGRILHLNAMGWYRQAPGKERELVAAITRSGSSTYYADSVKGRFTISRDNAKNTVYLQMNSLKAEDTAVYYCAADWYPHSSAYDYWGQGTQVTVSS”, the “polyreactivity (PSR sort gate)” value is “low polyreactivity”.
As for “HVQLVESGGGLVQAGGSLRLSCAASGSICSWYGMGWYRQAPGKERELVAAITWTGGSTYYADSVKGRFTISRDNAKNTVYLQMNSLKQEDTAVYYCSADLRYVGFYYWGQGTQVTVSS”, the “polyreactivity (PSR sort gate)” value was “high polyreactivity”.
As to “HVQLVESGGGLVQAGGSLRLSCAASGSIFDTYAMGWYRQAPGKERELVAAINFSDGDTYYADSVKGRFTSSRDNSKNTVYLQLNSLKPEDTAVYDCAAEVWDPPEYYDEYDYWGQGTQVTVSS”, the “polyreactivity (PSR sort gate)” value was “low polyreactivity”.
Consider “HVQLVESGGGLVQAGGSLRLSCAASGSIFIIYAMGWYRQAPGKERELVAAMDWSDGSTYYADSVKGRFTISRDNANNTVYLQMNSLKPEDTAVYYCNTQSRTLGWPLDYWGQGTQVTVSS”, for which the “polyreactivity (PSR sort gate)” value is given as “high polyreactivity”.
Under “HVQLVESGGGLVQAGGSLRLSCAASGSIFVVYAMGWYRQAPGKERELVASIRTGGSTNYADSVKGRYTISRDNAKNTVYLQMNSLKPEDTAVYYCAAASWNSNRHYYVARYYYWGQGTQVTVSS” stands “high polyreactivity”.
As for “HVQLVESGGGLVQAGGSLRLSCAASGSIFVYNAMGWFRPAPGKERELVAGITFIGGSTYYADSVKGRFTISRDNAKNTVYLHMNSLKPVDNAVSYCATQEDWEDDWGQGTKVTVSS”, the “polyreactivity (PSR sort gate)” value was “low polyreactivity”.
For “HVQLVESGGGLVQAGGSLRLSCAASGSTVRRYAMGWYRQAPGKEREFVASITWRGGGTYYADSVKGRFTISRDNAKNTVYLQMNSLKPEETAVYYCASATQVRGHSLPYGYWGQGTQVTVSS”, the “polyreactivity (PSR sort gate)” value is on record as “high polyreactivity”.
As to “HVQLVESGGGLVQAGGSLRLSCAATGRIFWLYAMGWYRQAPGKERELVAAISSGGSTSYADSVKGRFTISRDNAKNTVYVQMNSLKPEDTAVYYCNATLLFPQLDGPESGEFDYWGQGTQRTVSS”, the “polyreactivity (PSR sort gate)” value is listed as “low polyreactivity”.
For the sequence “HVQLVESGGGLVQAGGSLRLSCDASGRTFYRYVIGWYRQAPGKERELVAAISKSDGSSYYADSVKGRFTISRDNAKNTVYLQMNSLKPEDTAVYYCAAQYPTFYSPRPFNYWGQGTQVTVSS”, the “polyreactivity (PSR sort gate)” value was “high polyreactivity”.
As for “HVQLVESGGGLVQAGGSLRLSCPASGRTFADNAMGWYRQAPGKERELVASISSGTSTNYADSVKGRFTISRDNAQNTVYVQMNSLKPEDTAVYYCNADGPIWYTAVLGVGRYYGWTDYWGQGTQVTVSS”, the entry is “low polyreactivity”; as for “HVQLVESGGGLVQAGGSLRVSCAASGRIFYYCARGWYGQAPGKEWELVAAITWSGGSTYYADSLMGRFTISRDNANNTVYVHKNSLKPEDPAVAYCTKSAAITGNGQMDYWGQCTQVTVSS”, “low polyreactivity”.
Consider “HVQLVESGGRLVQAGGSLRLSSAASGLNFYYYAIGWSRQAPGKERELVAAISRRGGSTYYADSVKGRFTISRDNAKNTVYLQMNSLKPEVTEVYYCAAKSGSFVHGGYQTPVYGSDYWGQGTQVTVSS”, for which the “polyreactivity (PSR sort gate)” value is “high polyreactivity”.
“HVQLVESVGGLVQAGGSLRLRCAASGSIFYRNAMGWYRKAPGKERELVAAISSDGSTNYADSVKGRFTISRDNAKNSVYFQMNSLKPEDTAVYYCAAPWTQILDYWGQGTQVTVSS”: the “polyreactivity (PSR sort gate)” value is recorded as “low polyreactivity”.
“HVQLVESVGGLVQAGGSLRLSCAASGRILGDNVMGWYRQAPGKERELVAAISSGSGSTYYADSVKGRFTISRDNAKNTVYLQMNSLKPEDTAVYYCAAGPYIYPRYDYWGQGTQVTVSS”: the “polyreactivity (PSR sort gate)” value is recorded as “low polyreactivity”.
Under “HVQLVETGGGIVQAGGSLRLSCAASGFIFRYYARGWYRPSHGKETELVAAIDYSGGSTNYADSVKGRFTISRDYAKNTVSLQMNSLKPEDTAVYYCAAYLGWGYDYWGQGTQVTVSS” stands “low polyreactivity”; under “HVQRVESAGGLVQAGGSLRLSCADSGLIFRGNAMGWYRQAPGKVRELVATISYSGGSTYYADSVKGRFTISRENAKNTVYLQMNSLKPEDTAVYYCNRDPDPWGFQPDWYYGSYDYWGQGTQVTVSS”, “low polyreactivity”.
For the sequence “KVQHVESGGGLVQAGGSLRLSSAASGRISWSYAMGWYRQAPGKESELVAAITSGGTTNYAYSVKGRFTISRDNAKYTVYLQMNSLKPEDTAVYYCARDSYQLGLIRDPLEYDFWGKGTQVTVSS”, the “polyreactivity (PSR sort gate)” value is recorded as “low polyreactivity”.
Under “KVQLVEKGGGLVQAGGSLRLSSAASGLNFTIYSMGWYRQEPGKERELVATISQGGGSTYADSVKGRFTISRDNAKNTVYLQMNSLKPEDTAVYYCNAKVVWYYLYDYWGQGTQVTVSS” stands “low polyreactivity”; under “KVQLVESCGGLVQAGGSLRLSCAASGFIISNYAMGWYRQAPGKERELVASISWGGGSTYYADSVKGSFTISRDNAKNTVYLQMNSLKPEDTAVYYCAAPSWDGIAYYGGYDYLGQGTQVTVSS”, “high polyreactivity”.
In the case of “KVQLVESGGGLVQAGGSLGLSCAASGSIFPSNFMGCYRQAPGKERELFAAISNTGSTYYADSVKGRVTISRDNAKNTVYLQMNSLKPEDTAVYYCAAEYWSYAHGGQLYGYDYWGQGSQVTVSS”, the “polyreactivity (PSR sort gate)” value is recorded as “low polyreactivity”.
As for “KVQLVESGGGLVQAGGSLRFSCAASGFIFRNYAMGWYRQAPGKERELVAAITARGTRTYYSDSVKGRFTISRDNAKNTVYLQMNSLKPEDTAVYYCAAVVLPSRQYDYWGQGTQVTVSS”, the entry is “high polyreactivity”.
In the case of “KVQLVESGGGLVQAGGSLRFSCAASGSTFYIYAMGWYRPAPGKERELVATISSTGSTHYADSVKGRFTLSRDNAKNTVYLQMISLKPEDTAVYYCNPVYFGRYSRRDHWGQGTQVTVSS”, the “polyreactivity (PSR sort gate)” value is “high polyreactivity”.
As for “KVQLVESGGGLVQAGGSLRLSCAASGFTFLRYAMGGYRQAPGKERELVAAIRFSGGSTYYADSVKGRFTISRDNAKNNVYLQMNSLKPEDTAVYYCAAYIRSYGYDYWGQGTKVTVSS”, the entry is “high polyreactivity”; as for “KVQLVESGGGLVQAGGSLRLSCAASGIIFNLYAMGWSRQAPGKERELVAAITSSGTSTYYADSVKGRFTISRDNAKNTLYLQMNSLKPEDTAVYYCAADRGFYYFVEYDYWGQGTQVTVSS”, “high polyreactivity”; as for “KVQLVESGGGLVQAGGSLRLSCAASGRTFRTYAMGWYRQAPGKERELVAANSSGGSTNYADSVKGRFTISRDNAKNTVYLQMNSLKPEDTSVYYCATRPTSDFVKRRVYEWLDYWGQGTQVTVSS”, “low polyreactivity”.
As for “KVQLVESGGGLVQAGGSLRLSCAASGRTFWYYAMGWYRLSPGKERELVAVITSVSSTYYADSVKGRFTISRDNAKNTVYLQMNSLKPEDTAVYYCAVGRTYRRYSAASYNYWGQGTQVTVSS”, the “polyreactivity (PSR sort gate)” value is “high polyreactivity”.
Under “KVQLVESGGGLVQAGGSLRLSCAASGSIFDYYAMGWYRQAPGKEREFVAAISISGGSTNYADSVKGRFTISRDNAKNTVYLQMNSLKPEDTAVYYCAATSRWSSYGFYVQYNYWGQGSQVTVSS” stands “high polyreactivity”; under “KVQLVESGGGLVQAGGSLRLSCAASGSILSPNAMGWYRQAPGKERELVAAINSGGGSTYYADSVKGRFTLSRDNAKNTVYLQMNSLKPEDTAVYYCAADHYYYRSRAYTYIIYDYWGQGTQVTVSS”, “low polyreactivity”.
Under “KVQLVESGGGLVQAGGSLRLSCAASGSTFIGNAMGWYRQAPGKERELVAAISRTGGSTYADSVKGRFTISRDNAKNTVYLQMNSLKPEDTAVYYCNAVRWYYDYWGQGTQVTVSS” stands “high polyreactivity”.

For the origin of these results see the nanobody polyreactivity screen of Harvey et al. (2022).
